Assay results from PMC3575693.

Target: needle protein MxiH (Shigella flexneri) (UniProt P0A223)
Test: co-purification with isolated needles, Western blot

Chain of UniProt P0A223 (P0A223 whole entry): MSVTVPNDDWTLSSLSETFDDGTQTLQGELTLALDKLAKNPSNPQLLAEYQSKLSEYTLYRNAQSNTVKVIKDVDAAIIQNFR

Substance: IpaB (natural protein)
- % IpaB in needles relative to the complemented strain, in the ipaDL99P strain: 100%
- % IpaB in needles relative to the complemented strain, in the wild-type strain: 70%
